Measured values: a protein production outcome set (Wang et al. 2014)

Assay: label from the status in PepcDB records

Row | Sequence | protein production
1 | MENFLSLFDFFKSKIRYIFLIYTIFTIYMNSKNCFINYVLLIFLDVILIIYSFIFLNKKQKYPFLFIIISTIVYAFIWLFGHCDNIYYFIILDDIFEIKADFKKKLLVAIHSSAFMMVTLKNLIFKNYDLHEILSSIAYSIIIYMAILFVFIFIHKFKDERDKLKILNSNLIEYSFNEREFLLSEERNRISQELHDSIGHSLMALSMNIKYLKGIKNRSNINEELDNMDKVIKESVQTLRSTVYNLKKLDECCDLKKEVYDIIKKFNRLDIVKINFDCASDIEKSTTTIKNTLIKTIKEGITNSLKHGNPTEINVTLTLVNSYIKLIIQDNGVGCQNIKPSAGLNGIKKRIEALNGKVAFESKARKGFTIETEIPGGF | failed
2 | TTESLYAFSRKLAGTAALDDVLWATAYQIALMLKVRVVLLLPEQGRIAVKAGYPPEDQLDPADLAAANWAWENDRVAGRGSDTLPGAKRLFLPMRTGRGPIGVIGIDDDRAGALLTPDQRRLLDALTDQGALAIERVHLVEDMDRVKR | failed
3 | MDETVAEFIKRTILKIPMNELTTILKAWDFLSENQLQTVNFRQRKESVVQHLIHLCEEKRASISDAALLDIIYMQFHQHQKVWDVFQMSKGPGEDVDLFDMKQFKNSFKKILQRALKNVTVSFRETEENAVWIRIAWGTQYTKPNQYKPTYVVYYSQTPYAFTSSSMLRRNTPLLGQELEATGKIYLRQEEIILDITEMKKACN | failed
4 | MLKQRIITALILLPIALCGFFLLEGSGFALFIGLVVSLGAWEWARLAGFEAQPARVAFAVVVAALLFLMHLVPGVAPWVLGAAVLWWALATYLVLTYPRSSEQWSGAAPKLLIGLLILLPAWQGLVFIKQLPLGNWLIMAVMVLVWGADIGAYFSGKAFGKRKLAPQVSPGKSWEGVYGGLALSLVITAVVGLVRDWTLGQMILGLLGAAIVVFISVVGDLTESMFKRQSGIKDSSNLLPGHGGVLDRIDSLTAAIPVFAVLLWMAAL | failed
5 | MWHIFERFVNEYERWFLVHRFAYLSELQAVKCLLPEGRGVEIGVGTGRFAVPLKIKIGVEPSERMAEIARKRGVFVLKGTAENLPLKDESFDFALMVTTICFVDDPERALKEAYRILKKGGYLIVGIVDRESFLGREYEKNKEKSVFYKNARFFSTEELMDLMRKAGFEEFKVVQTLFKHPSELSEIEPVKEGYGEGAFVVIRGTKK | not failed
6 | MSTSPADTARYNRFVADLFGMMAYGELSAFERFSADARYSPTLHDRAVLGRIAVVEFRHYELVSARLEAMGIDAEDAMLPFQAAVDYFHSRTRPADWYESLMKAYVIDTVSADFYRAISRYVDAGTRDVIEQIQASDETTEVLRERLRSALADDPRLASRLALWGRRLLGEALTQAQRVSYEHAFLGSLIGGEDSAAAKELVSGLIAGLAEKHSKRMTQLGLTG | not failed
7 | AGNRASNQGNSQPQQKYTVMSGTPEKILEHFLETIRLEATLNEATDSVLNDFIMMHCVFMPNTQLCPALVAHYHAQPSQGTEQEKMDYALNNKRRVIRLVLQWAAMYGDLLQEDDVSMAFLEEFYVSVSDDARM | failed
8 | MTIPLIIGGVLLAILILLILVFITKYRTVGPDEALIVTGNWLGGGKNVVTTDDGKKIKIIRGGGTFVVPIMQRAEPLSLLNYKLEVGTRDTYTKQGVPVTVNGVSIIKVGSTIEEVSTAAEQYLGKETEELKVEAKEVLEGHLRAILSSMTVEDAYSNREQFAQKVHEVASTDLKKMGLRIVSFTIKEIMDKNGYLDALGQPQIATVKRDATIANAEREKEARIEKARAEKEAKEAEYQRDAQIAEAEKHKELKVQSYKREQEQARADADLSYELQQAKAQQGVTEEQMRVKIIEREKQIELEEKEIARREKQYDAEVKKKADADRYAVEQSAEAEKVKQIKKADADQYKIEAEARARAEEVRVEGLAKAEIEKAQGQAKAEVQKAQGTAEADVIRLKGLAEAEAKQKIAEAFELYGQAAIMDMVLKMLPSYAKEVASPLSNIDKITVVDTGGGGKNSGAGKVAGYATDLMATMQETLKASSGIDLKELLEGFAGKGAVQQLSSDKPVVSVVEDEKKEVEKDKELEHHHHHH | failed
9 | MTIAQEPTALNFECETGNYHTFCPISCVAWLYQKIEDSFFLVIGTKTCGYFLQNAMGVMIFAEPRYAMAELEEGDISAQLNDYAELKRLCEQIKRDRNPSVIVWIGTCTTEIIKMDLEGLAPKLEGEIGIPIVVARANGLDYAFTQGEDTVLAAMAHRCPDKAPVAEAEKNLEHHHHHH | not failed
10 | MSATRHRSDGHEEIVALDALPLSAAIRRRELSCREVMQAYLAQIERFNPRVNAIVSLQAESRLLTQADERDRQLARGEWLGWMHGMPQAIKDLAATSGIPTTLGSPLFAGQVPEHDAIVVERVKSSGAIVIGKTNVPEFGLGSQTYNPLFGTTRNAYDPARIAGGSSGGAAVALALRMLPVADGSDMMGSLRNPAAYNNVYGFRPSQGRVPHGPQAELFVQQLATEGPMGRSVADLARLLATQAGYDPRCPLSLRDDPRRFADDLGRDFRGARLGWLGDYAGYLPMEEGVLELCEAALGDFAELGCDVEACLPDYPLERLWRTWLVHRQWLVQGSLGELYADPARRVRLKPEAQWEVESGLGLGAAEVYRASLDRSDWYRALARLFERYDFLLLPSAQVFPFDAETAWPRQVAGRPMDTYHRWMEVVIGPTLAGLPAISVPIGFGAAGLPMGLQIIGPAQADLAVLQLAHAHEGLTRWVSRRPPAMLEAPGGI | failed
11 | MVTQEQRRRQLAREKFLRQQQRRTSARRKARMRNAAIASVLGVILIGSVALYTTGVVLGDDDDKTNAGAEVTPSASAPSKAPDPCDKPADGKVKTQTWKKEPAMTVDKSAKYTMKLATTCGDIDLALKADAAPHTVNSFDFLAGKGYFDHTKCHRLTTEGIYVLQCGDPTAQGNGGPGYNIPDENLKDKSLKDNVYPAGTVAMANTGQPDSGGSQFFLVYQDSQLPPSYTPFGTVSKEGMTVLKKIASAGAQPADPTTGNTAPNATVVIDKATVSKS | failed
12 | MNVTLGTGDGADFWVFGFGSLIWKPDIPFEECRDAFITGWRRRFWQHSTDHRGTESYPGRVATLVLAEQPGERCYGRAYRVDNEAAADVLAYLDEREKQGYSRLALPVYDARSAEQITKHALVYIAREDNPHFVRAADERQIPVLCRIIARARGPSGDNATYLFRLKESLDEIGVRDEHVDELVFGVRAELEALASACSESTPHGVAVAPTAASFDAVPASSDDLR | failed
13 | MGRVYYGGVERTYLYRGRILNLALEGRYEIVEHKPAVAVIALREGRMLFVRQMRPAVGLAPLEIPAGLIEPGEDPLEAARRELAEETGLSGDLTYLFSYFVSPGFTDEKTHVFLAENLKEVEAHPDEDEAIEVVWMRPEEALERHQRGEVEFSATGLVGVLYYHAFLRGR | not failed
14 | MTQLELLLERIIDRVNVNLRHQKFDVGDYVRRQTPHLHYSKFYAFYGLSADDPVHFHFKNSSLAGSYLLGRVNVLHSALYKSDIRGDELKRKGQHFVCDGKMIPLHDDEVITIKDSFLNKTLVHSNSHDPESPEEFTIRNTVAMPYANIHGSLTEGSFIGSFATVDLSTIHNSVVRYFSYVQTGELVGKCVEPGQIWIKSGDELEFHYSFDKAILDKYISQEAGSCPTGVLMEFVEVRQEDFEEVFASGHMASGAGSASGASVSGYAVIKGDTVIGENVLVSQRAYLDNAWMGKGSNAQENCYIINSRLERNCVTAHGGKIINAHLGDMIFTGFNSFLQGSESSPLKIGDGCVVMPHTIIDLEEPLEIPAGHLVWGYIRNKADLAAHSISFEEFAKVDGEVTMGRMTFRGKGGPFLDSFKKRIKRILSENGAFFDGSEGTGHAQKGKNFTFNIIQPYQDGDPRGMYPTILIQPNNGS | not failed
15 | METELVTYKEKNVQMSMLEVIGMIGIIFGVMYGIGYLNFLYEFSLYPWYVNHLISPFTFCMIIVMYAPARNYCVQLVKSIQFNHFKHYVTIVMTMIVLLIYLAVLNLVLPHGLGVEGSNIVIEPTKNEIILYVVVLTIFAPIWEELVFRGMFFMKLSQRFSTLSSAVISAFIFTLGHPLTVGSILYIFGIGICLAYTYKKTNNLLVPIGIHVLNNSFNLLVNFQL | failed
16 | MHLLQAVSYRYLILAVIGLPEKYRKPQALACHHRRTAMNRLSAFALAAAIGIAAAPVAQAGELWRATGLEQPESALFDAANNRIIVSNIVGNPGEADGNGYLSVLSLDGKTITQHWTDGMDAPKGMAISGGKLYVADITKVRVVDLASGKLIASIVVPNAVFLNDMTSDHTGKVYVSDMLADTIYRIDGDRPELFVRDALLASPNGVFADGDRLIVASWGKGIKPDFSTAEPGGLLAVDLASKAVSPLPGAQKFADLDGVIAIGDTIYATAYMTGTLYRYKAGGAPEAVAHFKPGSADIGTDGKSILYVPLMNEGEVAALKLD | failed
17 | VVNDEWLSILGLSRQDITNHISDWDGLIHPNDDQFMKKTVQTHILSGKNYVVEFRMKHADGRWVWIQGSGSVIEYDENTHEPVRLCGTHQDITVRK | failed
18 | MIEPSKITVEQWLNRWLTDYAKPHLRQSTWESYETVLRLHVIPTLGSIPLKKLQPADIQRLYASKLESGLSPTRVRYIHVVLHEAMSQARESGLLLQNPTEAAKPPRHPKKKVQPLEHHHHHH | not failed
19 | MTTATSERQKTLLFKAAERQWKEEFAGKETDIRKVDCNIYKGILYQLEIRQVFLDTSLSLKKLSALLETNQTYLSNVVNKYFGCNLKELVNTYRVEYAKELLCSRRCALTELPCSCGFASKSAFYSAFSRIVGVSPLSYQTQERRLEHHHHHH | not failed
20 | SGRPFVEMYSEIPEIIHMTEGRELVIPCRVTSPNITVTLKKFPLDTLIPDGKRIIWDSRKGFIISNATYKEIGLLTCEATVNGHLYKTNYLTHRQTNTIIDVQISTPRPVKLLRGHTLVLNCTATTPLNTRVQMTWSYPDEKNKRASVRRRIDQSNSHANIFYSVLTIDKMQNKDKGLYTCRVRSGPSFKSVNTSVHIYDKAFITVKHR | not failed
21 | MAAWCSPRWLRVAVGTPRLPAAAGRGVQQPQGGVVAASLCRKLCVSAFGLSMGAHGPRALLTLRPGVRLTGTKSFPFVCTASFHTSASLAKDDYYQILGVPRNASQKDIKKAYYQLAKKYHPDTNKDDPKAKEKFSQLAEAYEVLSDEVKRKQYDAYGSAGFDPGASSSGQGYWRGGPSVDPEELFRKIFGEFSSSPFGDFQNVFDQPQEYIMELTFNQAAKGVNKEFTVNIMDTCERCDGKGNEPGTKVQHCHYCSGSGMETINTGPFVMRSTCRRCGGRGSIITNPCVVCRGAGQAKQKKRVTVPVPAGVEDGQTVRMPVGKREIFVTFRVQKSPVFRRDGADIHSDLFISIAQAILGGTAKAQGLYETINVTIPAGIQTDQKIRLTGKGIPRINSYGYGDHYIHIKIRVPKRLSSRQQNLILSYAEDETDVEGTVNGVTHTSTGGRTMDSSTGSKDRREAGEDNEGFLSKLKKIFTS | failed
22 | MKRKSLKSFIYVSALLVFLSGFVGVSLFVKSEVVEATTIGDDYPVKWKNLPLGGAIDDWRMYTRYCTSFVAYRLSTANNFELPSGFGNADRWGTEAMARGYKVDKNPKVGSVAWWTSTHVAWVAEVSGDNVKVEEYNYGFDGKYNTRWINKNSANGYIHFKDMPQTPVGWYNNGHYDYYYYADGTKAIGLTWVGTKRYNFDKNGAMYKNAWTNSDKYSYYSTSDGSLAVGLTWVGTKRYNFDKNGAMYKNAWTNSDKYSYYSTSDGSLAVGLTWVGTKRYNFDKNGAMYKNAWTNSDKYSYYSTSDGSLAVGHQQIGENKYIFDKNGALYKNMWVDLDGNRYYSKEDGALAIGEQIIDGITYMFDESGKLVNNLEHHHHHH | not failed
23 | MPFGYGLSYGTDFSQEIVSTEQNEDSVTLKVHAANNGTKAGKDVVQVYYNPPYTDFDAKNSIEKSTVNLIAFEKTDDIQPGAAQDITVTVTKEDMASYSYAHENSDGTKGAYLLEQGDYALSINKTAHEEYQSVTVNVPQTIWYDNDNPRQSDKDGQAILDDQGDPTNEPANGDTFKAASNLFQDMTDHMSKTSQLTRANGALSNTATFPTKEEMADISAAFNAKTDDEGRLILQQMDLDTDTTLGNTAGSKVYTTEKPTSNADNGLTLSDLRGVDFNDTKWDQLLDQLEWPSRMPE | failed
